# Experimental data taken from patent US20060264369, “Aptamers to von Willebrand Factor and their use as thrombotic disease therapeutics” (published 2006).
# Numbering of substitutions follows the chain as printed.
# B1: AMX237.F10 (ssDNA)
# DNA: CTACCTACGATCTGACTAGCGTGCAGTGCCCATTCCAGGCCGTGCGGTATCCTCCGTCACGCTTACTCTCATGTAGTTCC
# B2: AMX237.C5 (ssDNA)
# DNA: B1 DNA with C31T, T34C, C35T
# B3: AMX236.H2 (ssDNA)
# DNA: B1 DNA with C31T, T34C, T50G
# B4: AMX237.C4 (ssDNA)
# DNA: CTACCTACGATCTGACTAGCTTTCAGTCTTCCACATTTATAGGGTTTGGCATTGGGTCTGGCTTACTCTCATGTAGTTCC
# B5: AMX237.F1 (ssDNA)
# DNA: B4 DNA with A35G
# B6: AMX237.G2 (ssDNA)
# DNA: B4 DNA with C31T, C34T
# B7: AMX237.F5 (ssDNA)
# DNA: B4 DNA with C24T
# B8: AMX238.H11 (ssDNA)
# DNA: B4 DNA with C31T
# B9: AMX237.E5 (ssDNA)
# DNA: B4 DNA with C32T
# B10: AMX237.E9 (ssDNA)
# DNA: CTACCTACGATCTGACTAGCTCCAGTGTTTTGTCTAATAACCGTGCGGTGCCTCCGTGAGCTTACTCTCATGTAGTTCC
# B11: AMX237.A11 (ssDNA)
# DNA: B10 DNA with G32A, T35C
# B12: AMX237.B11 (ssDNA)
# DNA: B10 DNA with G32A
# B13: AMX237.A2 (ssDNA)
# DNA: B10 DNA with T31C, G32A, T35C
# B14: AMX238.D5 (ssDNA)
# DNA: B10 DNA with G32A, C34T, T35C, C51T
# B15: AMX237.E2 (ssDNA)
# DNA: B10 DNA with T31C, G32A
# B16: AMX237.H5 (ssDNA)
# DNA: B10 DNA with T31C, G32A, C34T
# B17: AMX238.D12 (ssDNA)
# DNA: B10 DNA with T31C, G32A, C34T, T35C
# B18: AMX238.G5 (ssDNA)
# DNA: B10 DNA with G32A, C34T, T35C
# B19: AMX237.B4 (ssDNA)
# DNA: B10 DNA with T31C, G32A, T35C, C52T
# B20: AMX238.D8 (ssDNA)
# DNA: B10 DNA with G32A, T35C, T38C
# B21: AMX236.H1 (ssDNA)
# DNA: CTACCTACGATCTGACTAGCCTCAGATTGACTCCGGCCGACTTGTTTTAATCTTCTGAGTGCTTACTCTCATGTAGTTCC
# B22: AMX236.G1 (ssDNA)
# DNA: B21 DNA with C38T
# B23: AMX237.F9 (ssDNA)
# DNA: CTACCTACGATCTGACTAGCTTGGTAGCGATTCTGTGGAGCTGCGGTTTGGTCGACGTCAGCTTACTCTCATGTAGTTCC
# B24: AMX237.B1 (ssDNA)
# DNA: B23 DNA with T31C, T32A, T34A
# B25: AMX236.B8 (ssDNA)
# DNA: B23 DNA with T31C, T48C
# B26: AMX236.C12 (ssDNA)
# DNA: B23 DNA with T31C, T34C
# B27: AMX237.F12 (ssDNA)
# DNA: B23 DNA with C33T
# B28: AMX237.G7 (ssDNA)
# DNA: B23 DNA with T31C, C33T
# B29: AMX236.G4 (ssDNA)
# DNA: B23 DNA with T31C, C33T, C41A, C53T
# B30: AMX236.A12 (ssDNA)
# DNA: B23 DNA with T31C
# B31: AMX237.D5 (ssDNA)
# DNA: B23 DNA with T31C, T32A, C53T
# B32: AMX236.A11 (ssDNA)
# DNA: B23 DNA with T31C, T48C, T52C
# B33: AMX237.C9 (ssDNA)
# DNA: B23 DNA with C28T, T31C, C33T
# B34: AMX237.H10 (ssDNA)
# DNA: B23 DNA with T31C, T34A, T36A
# B35: AMX238.G4 (ssDNA)
# DNA: CTACCTACGATCTGACTAGCTTGTCGCACTTTTGGTTGGTCTGGTTGGTTCTAAGTGCGCTTACTCTCATGTAGTTCC
# B36: AMX236.B3 (ssDNA)
# DNA: CTACCTACGATCTGACTAGCCTTACCTATTCCCTTCTGCGGAATACGTCGAGTACTATGCTTACTCTCATGTAGTTCC
# B37: AMX238.E7 (ssDNA)
# DNA: CTACCTACGATCTGACTAGCGTGCAGTGCCTATTTTAGGCCGTGCGGTGCCTCCGTCACGCTTACTCTCATGTAGTTCC
# B38: AMX237.C11 (ssDNA)
# DNA: B37 DNA with T35C, C59T
# B39: AMX238.F3 (ssDNA)
# DNA: B37 DNA with C40T, T48G
# B40: AMX238.F2 (ssDNA)
# DNA: B37 DNA with G21A, T31C, T35C, C59T
# B41: AMX199.G5 (ssDNA)
# DNA: CTACCTACGATCTGACTAGCGAAACACTAGGTTGGTTAGGATTGGTGTGTTCCCGCCCTGCTTACTCTCATGTAGTTCC
# B42: AMX200.G11 (ssDNA)
# DNA: CTACCTACGATCTGACTAGCGGAACGAGAATGCTGATGGATTGCTCAGGTCTGCTGGCTGCTTACTCTCATGTAGTTCC
# B43: AMX200.B9 (ssDNA)
# DNA: B42 DNA with C25T, G57A
# B44: AMX200.F9 (ssDNA)
# DNA: B42 DNA with C25T, A29G, C44G
# B45: AMX200.D11 (ssDNA)
# DNA: B42 DNA with C25T, G26A
# B46: AMX200.E8 (ssDNA)
# DNA: B42 DNA with C25T, A29G, A36G, C54T
# B47: AMX200.D8 (ssDNA)
# DNA: B42 DNA with C25T, C33T
# B48: AMX200.A7 (ssDNA)
# DNA: B42 DNA with C25T, C44T
# B49: AMX200.B8 (ssDNA)
# DNA: B42 DNA with C25T, C33T, A36G
# B50: AMX200.B1 (ssDNA)
# DNA: B42 DNA with C25T, T45C
# Biological target: von Willebrand factor full length (Homo sapiens, UniProt P04275 SEQ:764-2813)
# Assay: filter; 20 nM protein
# Conditions: tags: Calbiochem 681300
# Procedure: When a significant positive ratio of binding of DNA in the presence of human or rabbit vWF A1 domain versus in the absence of protein was seen, the pools were cloned using the TOPO TA cloning kit (Invitrogen Cat.# 45-0641, Carlsbad, Calif.) according to the manufacturer's instructions. […] All unique clones were assayed twice in a 3-point dot blot screen (no protein target control, 20 nM full length human vWF (Calbiochem Cat.# 681300, La Jolla, Calif.), or 20 nM rabbit vWF A1 domain. The data is presented in the third and fourth columns of Table 17 below as the ratio of the fraction of the aptamer bound to the nitrocellulose in the presence of the target protein to the fraction of aptamer bound in the absence of the target protein.
row,Binder,binding signal
1,B1,2.9 ratio to no protein
2,B2,2.55 ratio to no protein
3,B3,2.12 ratio to no protein
4,B4,0.97 ratio to no protein
5,B5,0.98 ratio to no protein
6,B6,1.02 ratio to no protein
7,B7,0.99 ratio to no protein
8,B8,0.98 ratio to no protein
9,B9,0.97 ratio to no protein
10,B10,2.13 ratio to no protein
11,B11,2.66 ratio to no protein
12,B12,2.87 ratio to no protein
13,B13,2.6 ratio to no protein
14,B14,1.46 ratio to no protein
15,B15,1.61 ratio to no protein
16,B16,1.63 ratio to no protein
17,B17,2.4 ratio to no protein
18,B18,3.06 ratio to no protein
19,B19,1.42 ratio to no protein
20,B20,2.02 ratio to no protein

row,Binder,binding signal
1,B21,1.1 ratio to no protein
2,B22,1.47 ratio to no protein
3,B23,2.21 ratio to no protein
4,B24,2 ratio to no protein
5,B25,1.66 ratio to no protein
6,B26,1.99 ratio to no protein
7,B27,1.95 ratio to no protein
8,B28,2.68 ratio to no protein
9,B29,1.7 ratio to no protein
10,B30,2.64 ratio to no protein
11,B31,1.41 ratio to no protein
12,B32,2.02 ratio to no protein
13,B33,2.05 ratio to no protein
14,B34,1.71 ratio to no protein
15,B35,1.09 ratio to no protein
16,B36,1.54 ratio to no protein
17,B37,3.02 ratio to no protein
18,B38,2.04 ratio to no protein
19,B39,2.83 ratio to no protein
20,B40,2.84 ratio to no protein

# Biological target: von Willebrand factor A1 domain (human) (Homo sapiens, UniProt P04275 SEQ:13-246)
# Assay: filter; 100 nM protein
# Conditions: not given
# Procedure: All unique clones were assayed in a 3-point dot blot screen (no protein target control, 100 nM human vWF A1 domain (SEQ ID NO 5), or 100 nM rabbit vWF A1 domain (SEQ ID NO 6). The data are presented in the third and fourth columns of Table 14 below as the ratio of the fraction of the aptamer bound to the nitrocellulose in the presence of the target protein to the fraction of aptamer bound in the absence of the target protein.
row,Binder,binding signal
1,B41,1.41 ratio to no protein
2,B42,1.73 ratio to no protein
3,B43,2.54 ratio to no protein
4,B44,0.97 ratio to no protein
5,B45,3.34 ratio to no protein
6,B46,1.04 ratio to no protein
7,B47,2.86 ratio to no protein
8,B48,0.97 ratio to no protein
9,B49,4.13 ratio to no protein
10,B50,4.01 ratio to no protein
